US20090192084A1

Experiments:
[1] = target: Kelch-like protein 22. KLEIL22 (human) (UniProt Q53GT1); assay: Flag co-IP, MudPIT MS, DMSO
UBR2 (human) = UBR2 (human) (UniProt Q8IWV8); assay: Flag co-IP, MudPIT MS, DMSO
[2] = target: Baculoviral IAP repeat-containing protein 2, IAP2 (human) (UniProt Q13490); assay: Flag co-IP, MudPIT MS, DMSO
Cullin 3 (human) = Cullin 3 (human) (UniProt Q13618); assay: Flag co-IP, MudPIT MS, DMSO
[3] = target: Retinoblastoma-associated factor 600, UBR4 (human) (UniProt Q5T4S7); assay: Flag co-IP, MudPIT MS, DMSO
UBR1 (human) = UBR1 (human) (UniProt Q8IWV7); assay: Flag co-IP, MudPIT MS, DMSO
[4] = target: CUL3-interacting protein I. KLHL12 (human) (UniProt Q53G59); assay: Flag co-IP, MudPIT MS, DMSO
[5] = target: DNA damage-binding protein I. DDB1 (human) (UniProt Q16531); assay: Flag co-IP, MudPIT MS, DMSO
gp78 (human) = gp78 (human) (UniProt Q9UKV5); assay: Flag co-IP, MudPIT MS, DMSO
Chain of gp78 (human) (Q9UKV5 whole entry): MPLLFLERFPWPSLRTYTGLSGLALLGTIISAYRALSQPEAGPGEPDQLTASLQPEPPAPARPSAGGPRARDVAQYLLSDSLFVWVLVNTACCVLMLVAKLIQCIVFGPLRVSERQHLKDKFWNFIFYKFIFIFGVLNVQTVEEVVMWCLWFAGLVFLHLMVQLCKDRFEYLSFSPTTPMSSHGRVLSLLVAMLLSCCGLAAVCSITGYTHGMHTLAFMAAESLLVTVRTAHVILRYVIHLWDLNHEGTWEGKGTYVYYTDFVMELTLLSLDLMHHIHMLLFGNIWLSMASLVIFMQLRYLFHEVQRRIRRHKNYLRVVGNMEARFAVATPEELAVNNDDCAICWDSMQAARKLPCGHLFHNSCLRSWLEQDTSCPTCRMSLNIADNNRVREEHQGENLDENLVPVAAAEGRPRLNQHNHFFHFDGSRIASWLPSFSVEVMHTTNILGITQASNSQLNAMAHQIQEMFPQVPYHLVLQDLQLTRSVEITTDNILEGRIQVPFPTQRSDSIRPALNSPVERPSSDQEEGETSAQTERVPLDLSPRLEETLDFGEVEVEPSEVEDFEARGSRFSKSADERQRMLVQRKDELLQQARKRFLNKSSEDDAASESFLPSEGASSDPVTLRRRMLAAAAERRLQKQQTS

EDD1/UBR5 (human) [6] = target: EDD1/UBR5 (human) (UniProt O95071); assay: Flag co-IP, MudPIT MS, DMSO
Praja 2 (human) = Praja 2 (human) (UniProt O43164); assay: Flag co-IP, MudPIT MS, DMSO
Chain of Praja 2 (human) (O43164 2-708 limits assumed): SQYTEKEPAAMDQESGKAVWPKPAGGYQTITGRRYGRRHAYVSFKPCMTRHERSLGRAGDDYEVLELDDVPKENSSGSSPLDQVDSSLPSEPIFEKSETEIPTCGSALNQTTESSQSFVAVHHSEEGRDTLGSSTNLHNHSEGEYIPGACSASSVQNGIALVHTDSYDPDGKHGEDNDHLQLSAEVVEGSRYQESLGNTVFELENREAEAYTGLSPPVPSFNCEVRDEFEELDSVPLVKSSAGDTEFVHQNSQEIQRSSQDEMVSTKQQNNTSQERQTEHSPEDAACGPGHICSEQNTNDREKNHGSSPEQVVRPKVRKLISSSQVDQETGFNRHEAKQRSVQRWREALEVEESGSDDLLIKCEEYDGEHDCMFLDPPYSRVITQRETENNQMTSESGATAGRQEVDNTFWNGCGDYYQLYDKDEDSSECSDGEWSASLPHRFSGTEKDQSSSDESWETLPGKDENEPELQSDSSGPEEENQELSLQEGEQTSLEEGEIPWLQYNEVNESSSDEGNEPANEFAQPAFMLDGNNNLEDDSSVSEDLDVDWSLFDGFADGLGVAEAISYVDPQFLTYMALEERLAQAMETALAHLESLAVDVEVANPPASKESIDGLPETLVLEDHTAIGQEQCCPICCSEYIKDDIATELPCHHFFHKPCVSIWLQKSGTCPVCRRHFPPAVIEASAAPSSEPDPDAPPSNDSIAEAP

VCIP135 (human) = target: T1, VCIP135 (human) (UniProt Q96JH7); assay: Flag co-IP, 293 cells, MudPIT MS
T1 sequence (looked up): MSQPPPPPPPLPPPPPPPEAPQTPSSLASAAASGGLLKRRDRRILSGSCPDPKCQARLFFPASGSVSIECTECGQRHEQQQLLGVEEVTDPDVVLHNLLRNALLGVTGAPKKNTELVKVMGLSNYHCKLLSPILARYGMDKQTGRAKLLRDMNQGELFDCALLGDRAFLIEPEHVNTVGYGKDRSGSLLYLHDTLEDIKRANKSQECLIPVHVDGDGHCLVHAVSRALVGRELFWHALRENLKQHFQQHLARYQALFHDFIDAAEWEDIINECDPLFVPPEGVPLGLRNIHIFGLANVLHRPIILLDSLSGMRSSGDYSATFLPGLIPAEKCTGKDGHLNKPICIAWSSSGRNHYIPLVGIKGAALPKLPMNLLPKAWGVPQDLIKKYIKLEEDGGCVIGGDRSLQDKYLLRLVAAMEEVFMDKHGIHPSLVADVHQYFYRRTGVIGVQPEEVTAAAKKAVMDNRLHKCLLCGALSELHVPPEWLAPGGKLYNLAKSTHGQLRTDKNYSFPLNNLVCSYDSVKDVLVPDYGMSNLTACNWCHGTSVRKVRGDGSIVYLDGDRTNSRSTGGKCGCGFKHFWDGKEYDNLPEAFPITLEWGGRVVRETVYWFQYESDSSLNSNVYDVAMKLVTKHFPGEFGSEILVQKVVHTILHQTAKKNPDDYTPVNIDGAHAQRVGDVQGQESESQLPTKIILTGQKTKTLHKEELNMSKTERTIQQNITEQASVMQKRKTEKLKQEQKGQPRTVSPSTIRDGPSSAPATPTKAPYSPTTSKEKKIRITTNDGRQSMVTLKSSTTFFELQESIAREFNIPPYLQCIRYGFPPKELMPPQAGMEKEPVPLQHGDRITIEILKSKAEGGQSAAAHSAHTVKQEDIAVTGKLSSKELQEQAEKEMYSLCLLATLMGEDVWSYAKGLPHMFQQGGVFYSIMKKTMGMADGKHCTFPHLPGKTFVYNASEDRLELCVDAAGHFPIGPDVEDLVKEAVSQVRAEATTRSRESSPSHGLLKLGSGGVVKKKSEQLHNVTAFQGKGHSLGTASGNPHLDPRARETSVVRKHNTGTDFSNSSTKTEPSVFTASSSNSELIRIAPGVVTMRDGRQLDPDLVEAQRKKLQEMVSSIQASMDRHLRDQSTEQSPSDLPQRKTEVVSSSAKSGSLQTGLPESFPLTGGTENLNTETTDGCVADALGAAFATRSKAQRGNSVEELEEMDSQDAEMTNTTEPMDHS

PLAP (human) = PLAP (human) (UniProt Q9Y263); assay: Flag co-IP, 293 cells, MudPIT MS
Chain of PLAP (human) (Q9Y263 whole entry): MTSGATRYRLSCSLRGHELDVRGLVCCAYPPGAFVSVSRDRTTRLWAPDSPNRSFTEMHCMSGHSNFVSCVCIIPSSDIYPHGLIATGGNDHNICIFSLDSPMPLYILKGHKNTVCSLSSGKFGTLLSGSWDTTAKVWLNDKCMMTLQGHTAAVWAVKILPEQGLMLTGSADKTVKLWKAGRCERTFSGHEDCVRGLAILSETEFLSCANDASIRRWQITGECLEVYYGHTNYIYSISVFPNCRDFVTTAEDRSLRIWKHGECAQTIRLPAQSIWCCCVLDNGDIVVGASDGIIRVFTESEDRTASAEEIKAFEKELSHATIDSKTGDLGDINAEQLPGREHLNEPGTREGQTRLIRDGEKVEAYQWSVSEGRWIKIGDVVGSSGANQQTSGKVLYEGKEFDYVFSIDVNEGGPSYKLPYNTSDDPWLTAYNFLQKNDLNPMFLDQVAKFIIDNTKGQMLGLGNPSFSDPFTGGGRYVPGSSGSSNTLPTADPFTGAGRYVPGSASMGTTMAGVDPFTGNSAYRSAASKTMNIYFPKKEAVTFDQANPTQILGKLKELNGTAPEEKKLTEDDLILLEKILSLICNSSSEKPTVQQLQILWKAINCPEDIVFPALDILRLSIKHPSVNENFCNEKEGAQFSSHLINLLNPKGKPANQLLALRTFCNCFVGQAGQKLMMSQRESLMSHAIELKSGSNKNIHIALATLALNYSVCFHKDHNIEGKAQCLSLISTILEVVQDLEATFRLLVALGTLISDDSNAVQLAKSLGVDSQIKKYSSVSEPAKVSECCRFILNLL

[7] = target: Retinoblastoma-associated factor 600, UBR4 (human) (UniProt Q5T4S7); assay: Flag co-IP, MudPIT MS, MG132
[8] = target: DNA damage-binding protein I. DDB1 (human) (UniProt Q16531); assay: Flag co-IP, MudPIT MS, MG132
EDD1/UBR5 (human) [9] = target: EDD1/UBR5 (human) (UniProt O95071); assay: Flag co-IP, MudPIT MS, MG132
[10] = target: CUL4- and DDB I-associated WDR protein 2, WDR26 (human) (UniProt Q9H7D7); assay: Flag co-IP, MudPIT MS, DMSO
Chain of CUL4- and DDB I-associated WDR protein 2, WDR26 (human) (Q9H7D7 whole entry): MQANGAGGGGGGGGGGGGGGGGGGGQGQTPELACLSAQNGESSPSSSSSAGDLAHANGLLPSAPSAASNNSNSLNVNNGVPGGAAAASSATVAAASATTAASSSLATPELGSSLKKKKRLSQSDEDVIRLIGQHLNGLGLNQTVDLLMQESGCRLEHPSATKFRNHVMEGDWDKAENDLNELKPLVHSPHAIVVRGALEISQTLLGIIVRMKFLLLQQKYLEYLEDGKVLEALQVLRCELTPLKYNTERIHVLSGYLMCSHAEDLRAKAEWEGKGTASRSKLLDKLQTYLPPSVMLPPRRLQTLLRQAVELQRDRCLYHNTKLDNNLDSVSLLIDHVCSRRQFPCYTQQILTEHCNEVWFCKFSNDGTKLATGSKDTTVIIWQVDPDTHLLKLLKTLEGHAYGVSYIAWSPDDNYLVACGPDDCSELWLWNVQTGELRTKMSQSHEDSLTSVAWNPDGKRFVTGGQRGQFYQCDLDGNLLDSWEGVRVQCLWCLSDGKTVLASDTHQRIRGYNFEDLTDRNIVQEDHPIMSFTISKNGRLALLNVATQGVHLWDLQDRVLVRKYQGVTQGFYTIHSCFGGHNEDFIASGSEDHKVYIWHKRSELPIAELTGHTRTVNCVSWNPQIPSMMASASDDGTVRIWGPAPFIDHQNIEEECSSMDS

endogenous NPL4 (human) = endogenous NPL4 (human) (UniProt Q8TAT6); assay: Flag co-IP, 293 cells, MudPIT MS

Chain of Kelch-like protein 22. KLEIL22 (human) (Q53GT1 2-634 limits assumed): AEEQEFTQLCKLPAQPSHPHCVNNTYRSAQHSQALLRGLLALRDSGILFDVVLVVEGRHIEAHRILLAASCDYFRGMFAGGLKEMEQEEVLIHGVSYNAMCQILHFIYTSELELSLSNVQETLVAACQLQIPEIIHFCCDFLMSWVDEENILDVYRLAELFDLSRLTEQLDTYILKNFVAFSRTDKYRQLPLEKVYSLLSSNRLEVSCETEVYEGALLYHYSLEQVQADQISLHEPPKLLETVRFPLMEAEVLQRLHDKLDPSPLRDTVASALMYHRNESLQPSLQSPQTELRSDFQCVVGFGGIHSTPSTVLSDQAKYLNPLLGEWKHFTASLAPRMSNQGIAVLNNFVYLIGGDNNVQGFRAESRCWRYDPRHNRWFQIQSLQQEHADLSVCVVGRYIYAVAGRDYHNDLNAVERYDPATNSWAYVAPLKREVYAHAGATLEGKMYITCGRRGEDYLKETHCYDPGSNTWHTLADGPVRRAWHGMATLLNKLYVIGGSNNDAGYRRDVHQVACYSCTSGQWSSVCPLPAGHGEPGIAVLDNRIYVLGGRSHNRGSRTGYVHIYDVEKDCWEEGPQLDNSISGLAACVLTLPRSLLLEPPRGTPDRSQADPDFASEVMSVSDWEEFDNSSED
Chain of Cullin 3 (human) (Q13618 2-768 limits assumed): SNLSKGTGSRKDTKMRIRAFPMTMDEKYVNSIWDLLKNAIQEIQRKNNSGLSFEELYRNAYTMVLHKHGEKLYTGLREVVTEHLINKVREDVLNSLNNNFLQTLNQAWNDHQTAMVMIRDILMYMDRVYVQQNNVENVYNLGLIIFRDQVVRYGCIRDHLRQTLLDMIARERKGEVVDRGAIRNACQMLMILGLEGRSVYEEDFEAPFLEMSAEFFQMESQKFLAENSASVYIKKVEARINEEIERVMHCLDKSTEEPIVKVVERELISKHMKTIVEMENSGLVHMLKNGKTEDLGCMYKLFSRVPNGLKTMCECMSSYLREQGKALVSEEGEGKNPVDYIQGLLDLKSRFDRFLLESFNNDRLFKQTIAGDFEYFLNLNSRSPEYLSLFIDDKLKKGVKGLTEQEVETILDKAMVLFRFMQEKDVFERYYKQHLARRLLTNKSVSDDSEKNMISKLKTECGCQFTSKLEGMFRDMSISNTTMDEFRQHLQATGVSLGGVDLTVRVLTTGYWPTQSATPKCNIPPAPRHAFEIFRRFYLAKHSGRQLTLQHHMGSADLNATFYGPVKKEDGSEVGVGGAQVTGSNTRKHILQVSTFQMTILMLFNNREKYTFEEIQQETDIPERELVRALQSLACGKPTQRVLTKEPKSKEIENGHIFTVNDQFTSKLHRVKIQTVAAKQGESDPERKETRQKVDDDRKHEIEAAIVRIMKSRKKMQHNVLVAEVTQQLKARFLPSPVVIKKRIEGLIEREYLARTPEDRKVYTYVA
Chain of Baculoviral IAP repeat-containing protein 2, IAP2 (human) (Q13490 whole entry): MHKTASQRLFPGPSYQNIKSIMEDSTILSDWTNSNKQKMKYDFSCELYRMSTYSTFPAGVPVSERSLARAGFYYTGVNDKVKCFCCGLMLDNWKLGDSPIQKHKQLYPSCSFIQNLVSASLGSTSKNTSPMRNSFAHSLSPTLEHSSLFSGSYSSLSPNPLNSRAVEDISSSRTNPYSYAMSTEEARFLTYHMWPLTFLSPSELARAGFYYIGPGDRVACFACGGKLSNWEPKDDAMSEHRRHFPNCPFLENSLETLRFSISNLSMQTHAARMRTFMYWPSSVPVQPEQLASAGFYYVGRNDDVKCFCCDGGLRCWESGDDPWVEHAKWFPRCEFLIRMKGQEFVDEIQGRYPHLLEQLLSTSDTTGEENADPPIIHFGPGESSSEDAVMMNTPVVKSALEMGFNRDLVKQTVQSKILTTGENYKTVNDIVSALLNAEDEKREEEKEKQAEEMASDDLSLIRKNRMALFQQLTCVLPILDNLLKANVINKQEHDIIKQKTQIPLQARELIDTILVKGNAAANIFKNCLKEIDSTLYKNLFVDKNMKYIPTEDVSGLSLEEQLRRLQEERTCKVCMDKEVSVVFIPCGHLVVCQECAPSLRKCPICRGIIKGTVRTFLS

Flag-SAKS1 (from UniProt Q04323 1-297)
abundance factor (AF) [1]: 2.3
sequence count [1]: 2
spectrum count [1]: 2
abundance factor (AF) (UBR2 (human)): 2.8
sequence count (UBR2 (human)): 5
spectrum count (UBR2 (human)): 7
abundance factor (AF) [2]: 2.3
sequence count [2]: 2
spectrum count [2]: 2
abundance factor (AF) (Cullin 3 (human)): 2.7
sequence count (Cullin 3 (human)): 3
spectrum count (Cullin 3 (human)): 3
abundance factor (AF) [3]: 3.8
sequence count [3]: 18
spectrum count [3]: 27
abundance factor (AF) (UBR1 (human)): 0.8
sequence count (UBR1 (human)): 2
spectrum count (UBR1 (human)): 2
abundance factor (AF) [4]: 6.4
sequence count [4]: 2
spectrum count [4]: 5
abundance factor (AF) [5]: 1.3
sequence count [5]: 2
spectrum count [5]: 2
abundance factor (AF) (gp78 (human)): 3.3
sequence count (gp78 (human)): 3
spectrum count (gp78 (human)): 3
abundance factor (AF) (EDD1/UBR5 (human) [6]): 2.6
sequence count (EDD1/UBR5 (human) [6]): 9
spectrum count (EDD1/UBR5 (human) [6]): 10
abundance factor (AF) (Praja 2 (human)): 3.1
sequence count (Praja 2 (human)): 3
spectrum count (Praja 2 (human)): 3
sequence count (VCIP135 (human)): 2
sequence coverage (VCIP135 (human)): 2.9%
spectrum count (VCIP135 (human)): 2
sequence count (PLAP (human)): 26
sequence coverage (PLAP (human)): 32.1%
spectrum count (PLAP (human)): 90
abundance factor (AF) [7]: 5.7
sequence count [7]: 30
spectrum count [7]: 74
abundance factor (AF) [8]: 0.7
sequence count [8]: 2
spectrum count [8]: 2
abundance factor (AF) (EDD1/UBR5 (human) [9]): 2
sequence count (EDD1/UBR5 (human) [9]): 9
spectrum count (EDD1/UBR5 (human) [9]): 14

Flag-UBXD7 (from UniProt O94888 1-489)
abundance factor (AF) [1]: 6
sequence count [1]: 3
spectrum count [1]: 3
abundance factor (AF) (UBR2 (human)): 2.1
sequence count (UBR2 (human)): 2
spectrum count (UBR2 (human)): 3
abundance factor (AF) [2]: 6.1
sequence count [2]: 3
spectrum count [2]: 3
abundance factor (AF) (Cullin 3 (human)): 37
sequence count (Cullin 3 (human)): 13
spectrum count (Cullin 3 (human)): 23
abundance factor (AF) [3]: 4.5
sequence count [3]: 12
spectrum count [3]: 18
abundance factor (AF) (UBR1 (human)): 1.4
sequence count (UBR1 (human)): 2
spectrum count (UBR1 (human)): 2
abundance factor (AF) [4]: 18.1
sequence count [4]: 6
spectrum count [4]: 8
abundance factor (AF) [10]: 46.4
sequence count [10]: 12
spectrum count [10]: 19
abundance factor (AF) [5]: 12.4
sequence count [5]: 11
spectrum count [5]: 11
abundance factor (AF) (gp78 (human)): 5.9
sequence count (gp78 (human)): 3
spectrum count (gp78 (human)): 3
abundance factor (AF) (Praja 2 (human)): 5.5
sequence count (Praja 2 (human)): 2
spectrum count (Praja 2 (human)): 3
sequence count (endogenous NPL4 (human)): 14
sequence coverage (endogenous NPL4 (human)): 24.5%
spectrum count (endogenous NPL4 (human)): 33
sequence count (PLAP (human)): 2
sequence coverage (PLAP (human)): 4%
spectrum count (PLAP (human)): 2
abundance factor (AF) [7]: 2.1
sequence count [7]: 41
spectrum count [7]: 49
abundance factor (AF) [8]: 2.6
sequence count [8]: 13
spectrum count [8]: 13
abundance factor (AF) (EDD1/UBR5 (human) [9]): 0.2
sequence count (EDD1/UBR5 (human) [9]): 2
spectrum count (EDD1/UBR5 (human) [9]): 2

Flag-UBXD8 (from UniProt Q96CS3 1-445)
abundance factor (AF) (UBR2 (human)): 0.4
sequence count (UBR2 (human)): 3
spectrum count (UBR2 (human)): 5
abundance factor (AF) [3]: 0.2
sequence count [3]: 3
spectrum count [3]: 5
abundance factor (AF) (UBR1 (human)): 0.3
sequence count (UBR1 (human)): 3
spectrum count (UBR1 (human)): 3
abundance factor (AF) [10]: 1.2
sequence count [10]: 2
spectrum count [10]: 4
abundance factor (AF) [5]: 0.3
sequence count [5]: 2
spectrum count [5]: 2
abundance factor (AF) (gp78 (human)): 0.5
sequence count (gp78 (human)): 2
spectrum count (gp78 (human)): 2
abundance factor (AF) (EDD1/UBR5 (human) [6]): 0.2
sequence count (EDD1/UBR5 (human) [6]): 3
spectrum count (EDD1/UBR5 (human) [6]): 3
abundance factor (AF) (Praja 2 (human)): 0.7
sequence count (Praja 2 (human)): 3
spectrum count (Praja 2 (human)): 3
sequence count (VCIP135 (human)): 11
sequence coverage (VCIP135 (human)): 14.1%
spectrum count (VCIP135 (human)): 12
sequence count (endogenous NPL4 (human)): 11
sequence coverage (endogenous NPL4 (human)): 20.6%
spectrum count (endogenous NPL4 (human)): 209
sequence count (PLAP (human)): 10
sequence coverage (PLAP (human)): 20.1%
spectrum count (PLAP (human)): 15
abundance factor (AF) [7]: 0.3
sequence count [7]: 6
spectrum count [7]: 6
abundance factor (AF) [8]: 0.7
sequence count [8]: 3
spectrum count [8]: 4
abundance factor (AF) (EDD1/UBR5 (human) [9]): 0.8
sequence count (EDD1/UBR5 (human) [9]): 9
spectrum count (EDD1/UBR5 (human) [9]): 10
